B1: Azoarcus group I ribozyme (parent)
chain: GUGCCUUGCGCCGGGAAACCACGCAAGGGAUGGUGUCAAAUUCGGCGAAACCUAAGCGCCCGCCCGGGCGUAUGGCAACGCCGAGCCAAGCUUCGGCGCCUGCGCCGAUGAAGGUGUAGAGACUAGACGGCACCCACCUAAGGCAAACGCUAUGGUGAAGGCAUAGUCCAGGGAGUGGCGAAAGUCACACAAACCGG

Variants of: B1
Test: reverse-splicing fitness (ratio to wild type); higher = more active; in vitro selection; Mg2+ level not given
Summary of the method: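 An in vitro group I ribozyme library with randomized positions was T7-transcribed and gel-purified. In triplicate, 10 pmol RNA in EPPS pH 7.5 was reacted with 50 pmoles of a 30-nt RNA substrate for 1 h at 37 °C across several added MgCl2 levels (1–48 mM), then stopped with EDTA. Products were reverse transcribed from a substrate-complementary primer, PCR-amplified and sequenced (HiSeq 4000). Fitness is a variant's read proportion after selection over that before, normalised to wild type.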

Variant | reverse-splicing fitness
C82A A111U C150U C169U | 0.0124
C82A A111U C150U C169U U176A | 0.0146
C82A A111U C150U C169U U176C | 0.0146
C82A A111U C150U C169U U176G | 0.00671
C82A A111U C150U U176A | 0.0473
C82A A111U C150U U176C | 0.0751
C82A A111U C150U U176G | 0.0161
C82A A111U C169A | 0.00917
C82A A111U C169A U176A | 0.0172
C82A A111U C169A U176C | 0.0202
C82A A111U C169A U176G | 0.00595
C82A A111U C169G | 0.00884
C82A A111U C169G U176A | 0.0162
C82A A111U C169G U176C | 0.0258
C82A A111U C169G U176G | 0.00658
C82A A111U C169U | 0.014
C82A A111U C169U U176A | 0.0152
C82A A111U C169U U176C | 0.0132
C82A A111U C169U U176G | 0.00671
C82A A111U U176A | 0.0911
C82A A111U U176C | 0.158

Variant | reverse-splicing fitness
C82A A111U U176G | 0.026
C82A A120C | 0.144
C82A A120C A145C | 0.124
C82A A120C A145C C150A | 0.0144
C82A A120C A145C C150A C169A | 0.00995
C82A A120C A145C C150A C169A U176A | 0.0195
C82A A120C A145C C150A C169A U176C | 0.0102
C82A A120C A145C C150A C169A U176G | 0.00574
C82A A120C A145C C150A C169G | 0.0078
C82A A120C A145C C150A C169G U176A | 0.032
C82A A120C A145C C150A C169G U176C | 0.0244
C82A A120C A145C C150A C169G U176G | 0.00625
C82A A120C A145C C150A C169U | 0.00877
C82A A120C A145C C150A C169U U176A | 0.0144
C82A A120C A145C C150A C169U U176C | 0.0111
C82A A120C A145C C150A C169U U176G | 0.00481
C82A A120C A145C C150A U176A | 0.0107
C82A A120C A145C C150A U176C | 0.0155
C82A A120C A145C C150A U176G | 0.00599
C82A A120C A145C C150G | 0.0192
C82A A120C A145C C150G C169A | 0.00891

Variant | reverse-splicing fitness
C82A A120C A145C C150G C169A U176A | 0.0105
C82A A120C A145C C150G C169A U176C | 0.00816
C82A A120C A145C C150G C169A U176G | 0.00632
C82A A120C A145C C150G C169G | 0.00784
C82A A120C A145C C150G C169G U176A | 0.00969
C82A A120C A145C C150G C169G U176C | 0.00971
C82A A120C A145C C150G C169G U176G | 0.00575
C82A A120C A145C C150G C169U | 0.00982
C82A A120C A145C C150G C169U U176A | 0.00681
C82A A120C A145C C150G C169U U176C | 0.0105
C82A A120C A145C C150G C169U U176G | 0.00498
C82A A120C A145C C150G U176A | 0.0063
C82A A120C A145C C150G U176C | 0.0119
C82A A120C A145C C150G U176G | 0.00331
C82A A120C A145C C150U | 0.035
C82A A120C A145C C150U C169A | 0.00982
C82A A120C A145C C150U C169A U176A | 0.0161
C82A A120C A145C C150U C169A U176C | 0.00786
C82A A120C A145C C150U C169A U176G | 0.00541
C82A A120C A145C C150U C169G | 0.00856
C82A A120C A145C C150U C169G U176A | 0.0287

Variant | reverse-splicing fitness
C82A A120C A145C C150U C169G U176C | 0.0186
C82A A120C A145C C150U C169G U176G | 0.00542
C82A A120C A145C C150U C169U | 0.0118
C82A A120C A145C C150U C169U U176A | 0.0127
C82A A120C A145C C150U C169U U176C | 0.00988
C82A A120C A145C C150U C169U U176G | 0.00452
C82A A120C A145C C150U U176A | 0.0172
C82A A120C A145C C150U U176C | 0.0227
C82A A120C A145C C150U U176G | 0.00635
C82A A120C A145C C169A | 0.00831
C82A A120C A145C C169A U176A | 0.015
C82A A120C A145C C169A U176C | 0.00953
C82A A120C A145C C169A U176G | 0.00403
C82A A120C A145C C169G | 0.0102
C82A A120C A145C C169G U176A | 0.031
C82A A120C A145C C169G U176C | 0.0239
C82A A120C A145C C169G U176G | 0.00536
C82A A120C A145C C169U | 0.0188
C82A A120C A145C C169U U176A | 0.0135
C82A A120C A145C C169U U176C | 0.0127
